Measurements published in article PMC6521718 (Molecular cell, 2018).
Where two headings read alike, the source gives them in different places.

T1: Csy complex Cas8f N250A (Pseudomonas aeruginosa PA14, UniProt Q02ML9;Q02MM0;Q02MM1;Q02MM2 1-434;1-327;1-342;1-187, N250A)
T1 sequence 1: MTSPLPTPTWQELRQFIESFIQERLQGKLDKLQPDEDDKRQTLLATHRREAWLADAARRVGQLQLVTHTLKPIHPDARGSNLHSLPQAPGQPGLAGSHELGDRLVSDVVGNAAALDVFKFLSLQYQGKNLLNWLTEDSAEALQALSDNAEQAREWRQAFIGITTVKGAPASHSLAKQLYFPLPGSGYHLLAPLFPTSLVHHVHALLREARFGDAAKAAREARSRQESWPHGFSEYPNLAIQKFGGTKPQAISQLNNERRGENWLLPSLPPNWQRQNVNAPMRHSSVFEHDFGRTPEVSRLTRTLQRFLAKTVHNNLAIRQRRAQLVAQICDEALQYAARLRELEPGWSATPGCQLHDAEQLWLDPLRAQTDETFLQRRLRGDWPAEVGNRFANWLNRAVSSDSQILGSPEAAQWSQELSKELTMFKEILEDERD
T1 sequence 2: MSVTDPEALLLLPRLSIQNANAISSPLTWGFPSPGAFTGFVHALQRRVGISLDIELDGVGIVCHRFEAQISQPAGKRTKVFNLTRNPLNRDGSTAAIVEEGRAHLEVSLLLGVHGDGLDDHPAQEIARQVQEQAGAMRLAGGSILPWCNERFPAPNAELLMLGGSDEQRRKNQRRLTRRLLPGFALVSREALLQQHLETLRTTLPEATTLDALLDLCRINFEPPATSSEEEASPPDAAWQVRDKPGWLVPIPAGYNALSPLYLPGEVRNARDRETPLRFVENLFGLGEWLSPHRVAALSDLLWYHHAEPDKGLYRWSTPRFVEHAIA
T1 sequence 3: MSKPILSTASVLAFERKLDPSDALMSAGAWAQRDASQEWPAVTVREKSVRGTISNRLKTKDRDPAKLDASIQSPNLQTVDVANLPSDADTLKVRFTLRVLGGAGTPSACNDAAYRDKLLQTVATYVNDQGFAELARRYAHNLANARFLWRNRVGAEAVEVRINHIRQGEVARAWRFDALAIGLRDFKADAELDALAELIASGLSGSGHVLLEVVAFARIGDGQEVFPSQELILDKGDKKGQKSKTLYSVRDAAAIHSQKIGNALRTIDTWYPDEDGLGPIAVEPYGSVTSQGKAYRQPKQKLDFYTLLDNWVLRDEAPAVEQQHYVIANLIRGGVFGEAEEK
T1 sequence 4: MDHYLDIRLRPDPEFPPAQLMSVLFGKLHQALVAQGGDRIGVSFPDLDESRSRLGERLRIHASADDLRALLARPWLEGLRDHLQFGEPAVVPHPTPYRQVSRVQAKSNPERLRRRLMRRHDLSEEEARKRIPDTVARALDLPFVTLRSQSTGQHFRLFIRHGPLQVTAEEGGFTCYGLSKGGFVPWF

T2: Csy complex (type I-F, wild type) (Pseudomonas aeruginosa PA14, UniProt Q02ML9;Q02MM0;Q02MM1;Q02MM2 1-434;1-327;1-342;1-187)
T2 sequence 1: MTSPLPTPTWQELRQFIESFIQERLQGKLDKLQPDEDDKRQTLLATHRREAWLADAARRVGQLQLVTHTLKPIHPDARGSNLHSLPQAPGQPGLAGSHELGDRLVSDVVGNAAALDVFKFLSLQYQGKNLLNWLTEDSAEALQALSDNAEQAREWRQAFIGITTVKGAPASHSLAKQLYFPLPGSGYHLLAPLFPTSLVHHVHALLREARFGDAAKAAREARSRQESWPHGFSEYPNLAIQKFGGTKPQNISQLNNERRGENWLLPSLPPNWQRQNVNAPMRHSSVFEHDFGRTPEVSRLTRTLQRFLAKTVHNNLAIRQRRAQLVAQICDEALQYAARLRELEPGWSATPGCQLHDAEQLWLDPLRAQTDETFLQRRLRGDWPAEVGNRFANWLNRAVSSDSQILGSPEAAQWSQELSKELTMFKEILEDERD
T2 sequence 2: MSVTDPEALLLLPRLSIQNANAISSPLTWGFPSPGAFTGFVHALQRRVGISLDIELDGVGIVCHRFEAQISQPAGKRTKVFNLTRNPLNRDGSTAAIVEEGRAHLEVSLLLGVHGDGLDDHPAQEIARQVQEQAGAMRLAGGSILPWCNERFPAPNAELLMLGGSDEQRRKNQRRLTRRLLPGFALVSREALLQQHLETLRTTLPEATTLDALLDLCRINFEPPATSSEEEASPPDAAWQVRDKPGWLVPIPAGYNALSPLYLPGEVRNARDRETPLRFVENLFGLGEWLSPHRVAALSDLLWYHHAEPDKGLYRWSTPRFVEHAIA
T2 sequence 3: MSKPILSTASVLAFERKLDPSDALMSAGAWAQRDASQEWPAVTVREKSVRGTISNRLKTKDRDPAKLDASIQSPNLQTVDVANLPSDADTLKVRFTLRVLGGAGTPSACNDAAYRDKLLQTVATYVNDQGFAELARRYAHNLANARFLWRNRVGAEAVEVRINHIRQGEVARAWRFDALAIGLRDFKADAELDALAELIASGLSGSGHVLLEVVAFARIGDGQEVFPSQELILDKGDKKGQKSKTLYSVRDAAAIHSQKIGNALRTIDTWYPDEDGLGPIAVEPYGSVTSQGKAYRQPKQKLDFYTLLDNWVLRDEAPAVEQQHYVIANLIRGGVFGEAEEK
T2 sequence 4: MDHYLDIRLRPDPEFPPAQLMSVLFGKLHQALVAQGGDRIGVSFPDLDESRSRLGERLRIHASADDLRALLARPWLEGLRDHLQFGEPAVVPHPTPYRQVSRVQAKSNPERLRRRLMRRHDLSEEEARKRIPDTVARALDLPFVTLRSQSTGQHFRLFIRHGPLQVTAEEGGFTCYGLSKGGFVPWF

T3: Csy complex Cas8f RBC mutant (Pseudomonas aeruginosa PA14, UniProt Q02ML9;Q02MM0;Q02MM1;Q02MM2 1-434;1-327;1-342;1-187, R282E;H283D;R299E;R302E)
T3 sequence 1: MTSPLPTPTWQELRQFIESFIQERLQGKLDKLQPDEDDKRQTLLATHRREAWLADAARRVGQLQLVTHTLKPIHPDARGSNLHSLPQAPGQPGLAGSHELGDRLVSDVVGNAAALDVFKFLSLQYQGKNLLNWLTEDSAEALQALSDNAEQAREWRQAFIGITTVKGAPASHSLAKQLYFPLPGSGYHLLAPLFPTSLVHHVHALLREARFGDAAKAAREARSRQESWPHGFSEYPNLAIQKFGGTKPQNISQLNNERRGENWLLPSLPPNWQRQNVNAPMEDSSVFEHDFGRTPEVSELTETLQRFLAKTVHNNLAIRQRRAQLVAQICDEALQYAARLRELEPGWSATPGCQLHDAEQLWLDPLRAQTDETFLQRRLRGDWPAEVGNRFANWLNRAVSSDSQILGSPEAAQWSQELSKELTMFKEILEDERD
T3 sequence 2: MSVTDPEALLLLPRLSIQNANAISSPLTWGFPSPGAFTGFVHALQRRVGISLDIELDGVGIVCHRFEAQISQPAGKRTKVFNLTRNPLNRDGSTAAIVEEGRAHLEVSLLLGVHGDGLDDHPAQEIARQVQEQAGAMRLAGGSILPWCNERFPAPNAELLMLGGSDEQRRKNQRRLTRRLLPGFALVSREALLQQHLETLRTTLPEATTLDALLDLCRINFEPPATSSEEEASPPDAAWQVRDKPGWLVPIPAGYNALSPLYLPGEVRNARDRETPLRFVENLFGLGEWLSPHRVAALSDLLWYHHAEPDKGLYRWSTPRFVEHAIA
T3 sequence 3: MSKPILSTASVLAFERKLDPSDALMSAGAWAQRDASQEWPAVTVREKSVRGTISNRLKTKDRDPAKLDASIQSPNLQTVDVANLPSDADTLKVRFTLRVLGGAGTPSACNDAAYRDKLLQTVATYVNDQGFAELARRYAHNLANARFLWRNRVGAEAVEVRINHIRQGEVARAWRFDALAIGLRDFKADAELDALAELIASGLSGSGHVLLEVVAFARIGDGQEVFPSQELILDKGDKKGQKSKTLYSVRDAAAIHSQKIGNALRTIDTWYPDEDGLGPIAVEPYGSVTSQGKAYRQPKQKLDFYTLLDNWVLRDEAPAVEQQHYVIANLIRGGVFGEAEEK
T3 sequence 4: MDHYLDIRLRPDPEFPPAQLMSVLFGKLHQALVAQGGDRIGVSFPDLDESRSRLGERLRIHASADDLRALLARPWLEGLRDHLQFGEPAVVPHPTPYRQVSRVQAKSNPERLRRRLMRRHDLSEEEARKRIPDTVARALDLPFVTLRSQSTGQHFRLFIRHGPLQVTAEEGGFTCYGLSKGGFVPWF

B1: Cas7f, backbone subunit of the Csy complex (natural protein, Pseudomonas aeruginosa (strain PA14))
chain: MSKPILSTASVLAFERKLDPSDALMSAGAWAQRDASQEWPAVTVREKSVRGTISNRLKTKDRDPAKLDASIQSPNLQTVDVANLPSDADTLKVRFTLRVLGGAGTPSACNDAAYRDKLLQTVATYVNDQGFAELARRYAHNLANARFLWRNRVGAEAVEVRINHIRQGEVARAWRFDALAIGLRDFKADAELDALAELIASGLSGSGHVLLEVVAFARIGDGQEVFPSQELILDKGDKKGQKSKTLYSVRDAAAIHSQKIGNALRTIDTWYPDEDGLGPIAVEPYGSVTSQGKAYRQPKQKLDFYTLLDNWVLRDEAPAVEQQHYVIANLIRGGVFGEAEEK
B2: 80-bp dsDNA target, GG PAM (dsDNA)
DNA 1: GCTGTACGTCACTATCGAAGCAATACAGGTAGACGCGGACATCAAGCCCGCCGTGAAGGTGCAGCTTCTCTACAGAGTGC
DNA 2: GCACTCTGTAGAGAAGCTGCACCTTCACGGCGGGCTTGATGTCCGCGTCTACCTGTATTGCTTCGATAGTGACGTACAGC
B3: 80-bp target, TT PAM, bubble +1 to +10 (dsDNA)
DNA 1: GCTGTACGTCACTATCGAAGCAATACAGGTAGACGCGGACATCAAGCCCGCCGTGAATTTGCAGCTTCTCTACAGAGTGC
DNA 2: GCACTCTGTAGAGAAGCTGCAAAAAGTGCCGCCGCTTGATGTCCGCGTCTACCTGTATTGCTTCGATAGTGACGTACAGC
B4: 80-bp target, AA PAM, bubble +1 to +10 (dsDNA)
DNA 1: GCTGTACGTCACTATCGAAGCAATACAGGTAGACGCGGACATCAAGCCCGCCGTGAAAATGCAGCTTCTCTACAGAGTGC
DNA 2: GCACTCTGTAGAGAAGCTGCATTAAGTGCCGCCGCTTGATGTCCGCGTCTACCTGTATTGCTTCGATAGTGACGTACAGC
B5: 80-bp target, CC PAM, bubble +1 to +10 (dsDNA)
DNA 1: GCTGTACGTCACTATCGAAGCAATACAGGTAGACGCGGACATCAAGCCCGCCGTGAACCTGCAGCTTCTCTACAGAGTGC
DNA 2: GCACTCTGTAGAGAAGCTGCAGGAAGTGCCGCCGCTTGATGTCCGCGTCTACCTGTATTGCTTCGATAGTGACGTACAGC
B6: 80-bp target, GG PAM, bubble +1 to +10 (dsDNA)
DNA 1: GCTGTACGTCACTATCGAAGCAATACAGGTAGACGCGGACATCAAGCCCGCCGTGAAGGTGCAGCTTCTCTACAGAGTGC
DNA 2: GCACTCTGTAGAGAAGCTGCACCAAGTGCCGCCGCTTGATGTCCGCGTCTACCTGTATTGCTTCGATAGTGACGTACAGC

How the values were obtained:
cryo-EM structure = target: the molecule itself; experiment: cryo-EM structure
Csy complex Cas8f N250A = target: T1, Csy complex Cas8f N250A; experiment: EMSA
[1] = target: T2, Csy complex (type I-F, wild type); experiment: cryo-EM
[2] = target: T4, Csy complex (type I-F, wild type);Cas1-2/3 complex (Pseudomonas aeruginosa PA14;Pseudomonas …, UniProt Q02ML9;Q02MM0;Q02MM1;Q02MM2;Q02ML7;Q02ML8 1-434;1-327;1-342;1-187;1-324;1-1076, |); experiment: EMSA
T4 sequence (Q02ML7 whole entry, chain 5 of 2): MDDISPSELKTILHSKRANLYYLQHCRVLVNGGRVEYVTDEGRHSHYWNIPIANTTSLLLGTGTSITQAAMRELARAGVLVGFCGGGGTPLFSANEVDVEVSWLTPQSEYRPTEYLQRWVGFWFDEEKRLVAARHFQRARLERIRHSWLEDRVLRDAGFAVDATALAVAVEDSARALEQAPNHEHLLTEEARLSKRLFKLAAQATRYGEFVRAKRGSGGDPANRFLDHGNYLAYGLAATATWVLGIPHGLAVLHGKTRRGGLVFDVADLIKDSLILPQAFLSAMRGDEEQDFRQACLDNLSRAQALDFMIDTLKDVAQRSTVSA
T4 sequence (Q02ML8 whole entry, chain 6 of 2): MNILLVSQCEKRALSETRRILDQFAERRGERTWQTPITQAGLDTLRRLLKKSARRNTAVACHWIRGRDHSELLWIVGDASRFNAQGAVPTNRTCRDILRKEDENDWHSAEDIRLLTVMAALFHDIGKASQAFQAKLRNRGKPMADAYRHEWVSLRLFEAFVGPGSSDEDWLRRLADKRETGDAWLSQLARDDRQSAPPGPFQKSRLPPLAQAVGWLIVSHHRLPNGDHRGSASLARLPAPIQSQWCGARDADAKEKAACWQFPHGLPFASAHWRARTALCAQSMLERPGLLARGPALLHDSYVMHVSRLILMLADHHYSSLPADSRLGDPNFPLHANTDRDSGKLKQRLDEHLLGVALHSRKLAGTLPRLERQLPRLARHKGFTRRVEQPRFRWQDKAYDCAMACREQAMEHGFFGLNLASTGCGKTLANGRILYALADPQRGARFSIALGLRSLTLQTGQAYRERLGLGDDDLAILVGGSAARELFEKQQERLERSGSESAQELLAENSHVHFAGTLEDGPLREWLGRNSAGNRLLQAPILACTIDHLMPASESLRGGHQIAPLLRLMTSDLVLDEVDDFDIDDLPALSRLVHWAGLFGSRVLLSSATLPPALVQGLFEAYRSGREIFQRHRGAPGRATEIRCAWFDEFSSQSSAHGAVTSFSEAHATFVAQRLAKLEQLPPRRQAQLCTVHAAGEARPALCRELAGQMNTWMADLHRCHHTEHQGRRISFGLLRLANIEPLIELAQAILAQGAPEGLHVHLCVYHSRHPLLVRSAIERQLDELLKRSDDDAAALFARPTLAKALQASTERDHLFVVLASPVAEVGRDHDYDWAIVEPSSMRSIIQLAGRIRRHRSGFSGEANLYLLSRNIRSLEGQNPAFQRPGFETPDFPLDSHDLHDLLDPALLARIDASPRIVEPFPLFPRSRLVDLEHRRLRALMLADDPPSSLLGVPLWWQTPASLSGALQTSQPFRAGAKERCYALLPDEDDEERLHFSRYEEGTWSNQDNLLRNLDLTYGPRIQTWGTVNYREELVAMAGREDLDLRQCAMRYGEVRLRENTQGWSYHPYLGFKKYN

[3] = target: T2, Csy complex (type I-F, wild type); experiment: EMSA
[4] = target: T4, Csy complex (type I-F, wild …); experiment: EMSA; remark: listed apart in the source
[5] = target: T3, Csy complex Cas8f RBC mutant; experiment: EMSA

| Binder | binding result [3] | binding result [4] | also measured |
| --- | --- | --- | --- |
| B1 |  |  | binding result (cryo-EM structure): binds |
| B2 |  |  | binding signal (Csy complex Cas8f N250A): > 1000 fold decrease in affinity vs WT; binding result [1]: binds; binding result [2]: binds |
| B3 | binds | binds |  |
| B4 | binds | binds |  |
| B5 | binds | binds |  |
| B6 |  |  | binding result [5]: binds |
